# Assay results published in the supplement of paper PMC9170038.
# Tested on: MS2 coat protein
# Test: apparent KD of MS2 coat protein; designed switch direction (-1 OFF switch, 1 ON switch): -1; higher = weaker reporter binding
# Method in brief: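 Normalised cluster fluorescence was curve-fitted, and each design's median over clusters is its apparent KD. Before this, SNAP-549-labelled MS2 coat protein was titrated from 0.7 or 1.5 nM, doubling to 3 µM, over RNA switches transcribed on Illumina chips by stalled E. coli RNA polymerase. Titrations had no input, 200 uM small-molecule ligand, or an oligonucleotide input, and steps lasted 0.8–1.5 h (lowest) to 10–20 min (highest).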
# [1] = input ligand: microRNA oligo, concentration not stated
# [2] = Eterna round: R95, input ligand: FMN 200 uM
# [3] = Eterna round: R95, input ligand: microRNA oligo, concentration not stated
# [4] = Eterna round: R95, input ligand: none
Sequence,apparent KD of MS2 coat protein (input ligand: FMN 200 uM) [nM],apparent KD of MS2 coat protein [1] [nM],apparent KD of MS2 coat protein (input ligand: none) [nM],apparent KD of MS2 coat protein [2] [nM],apparent KD of MS2 coat protein [3] [nM],apparent KD of MS2 coat protein [4] [nM]
"AGAGUGCUGCGAGGAUAUACAUGAGGAUCACCCAUGUUUUCGUGUGAGGCAAAGCCUCACACGAUGUAGAAGGCGCAGUACUCA [Mat - Exclusion NG 2 - Mod of JL - D36] (Eterna round: R96, puzzle: Exclusion NG 2)",13.2,9.73,14.6,–,–,–
"AGAGUGGAGACAGGAUAUGAGAAUAGAUAGAAAUCAGAAGGGUCACAUGAGGAUCACCCAUGUAAAGUCUUGAGGAUGAGUGAU [Prohibition 1 - Jieux - Exclusion NG1] (Eterna round: R96, puzzle: Exclusion NG 1)",156,65.3,81.7,–,–,–
"AGAUAGUGCUGAGGAUAUCAGAAUAGAAAGAAAUGAGAAGGCGGACAUGAGGAUCACCCAUGUGAGGUCUUGAGACUACAUGGU [Prohibition 38 - Jieux - Exclusion NG 1] (Eterna round: R96, puzzle: Exclusion NG 1)",210,65.8,77.3,–,–,–
AGAUAGUUAGGAUAUACAUGAGGAUCACCCAUGUAGAAAAGUGGCUAAUGAGACUCCGGUAGAAGGAACAAAAU [Isanqurama] (puzzle: Exclusion 3),–,–,–,41.7,20,27.7
"AGAUCUAGGACAGGAUAUACGGAUGUCUUCAUCGAAGAUGAAGACAUCACAUGAGGAUCACCCAUGUAGAAGGGUCCUAGAUCA [Omei Exc(NG) 2A] (Eterna round: R96, puzzle: Exclusion NG 2)",12.3,10.9,14.3,–,–,–
"AGAUGACAUGAGGAUCACCCAUGUUAGGAUAUUUAAGCCUGUACGCGCGUACUAGACGAGAGAAGGGACAUGGC [Eternabot (Original) Solution 39] (Eterna round: R97, puzzle: Exclusion 1)",33.9,–,30.7,–,–,–
"AGAUGCUCAAGUCGACAUGAGGAUCACCCAUGUACAGUUAAUGAGGAUAUCCGAGAUAAAUAAUAGGAGAAGGUAUGAUCAUGA [Ex NG3 #5] (Eterna round: R96, puzzle: Exclusion NG 3)",86.7,175,59.5,–,–,–
"AGAUGCUCGAGUCGACAUGAGGAUCACCCAUGUACAGUUAGUGAGGAUAUCGGAGACACAUAGUAUGAGAAGGCGCGAACGUGA [Ex NG3 #15] (Eterna round: R96, puzzle: Exclusion NG 3)",224,52.1,97.8,–,–,–
"AGAUGCUCGAGUCGACAUGAGGAUCACCCAUGUACAGUUAGUGAGGAUAUCUGAGACACAUAGUAGGAGAAGGCGCGAACGUGA [Ex NG3 #14] (Eterna round: R96, puzzle: Exclusion NG 3)",–,58.6,–,–,–,–
AGAUGGCGAGGAUAUACAUGAGGAUCACCCAUGUGAGAAGAAGAAGUGAGGAAGAAAAGUAGAAGGCGCUGUCA [Mat - Exclusion 3 - Mod of Salish D20] (puzzle: Exclusion 3),–,–,–,145,50.3,44.9
"AGAUGUAGAUACCGAUCCUACAUGAGGAUCACCCAUGUAGCUAGACGUGCACGCGUAGCUCGUCAGACUACCAGUAG [salish99_TOv1_r3_086] (puzzle: Sensor v3, turn-off variant 1)",–,–,–,372,336,363
"AGCAGACGAGGAUAUGAUAAUUAAUACAUGAGGAUCACCCAUGUAAUACUGAUCCAUGGAUCAGAAGGCGUCUGCU [E5/4-A1] (Eterna round: R97, puzzle: Exclusion 5)",27.1,–,17.6,–,–,–
"AGCAUGCAGCAGGAUAUCGAUCCGCAGUAUGAUCGAGAAGGGCUGACAUGAGGAUCACCCAUGUGCGUCCUAGG [jl-ex6-4.42 ViennaUCT mod] (Eterna round: R97, puzzle: Exclusion 6)",295,–,66.3,–,–,–
"AGCAUGCAGUAGGAUAUCGAUCCACAAUAUGAACGAGAAGGGCUGACAUGAGGAUCACCCAUGUGCGUCCGAAG [Ersoontiri] (Eterna round: R97, puzzle: Exclusion 6)",21,–,16.8,–,–,–
AGCAUGCUAGGAUAUACGGGACAUUAGGGUUCGUUGUAUGGACAUGAGGAUCACCCAUGUAGAAGGAGCGUGCA [Mat - Exclusion 2 - Mod of Hyphema - D94] (puzzle: Exclusion 2),–,–,–,–,23.5,–
AGCAUGUAAGGAUAUGCAACACAGCUUUCAAUCGCUGUGCCGCAGAAGGUACAUGAGGAUCACCCAUGUGCUCC [Anesonza] (puzzle: Exclusion 4),–,–,–,–,75.6,–
"AGCAUGUGAGGAUAUGCGAAGGGAAGGAGAGGGAAAGAGAAGCAGAAGGCACAUGAGGAUCACCCAUGUAAGGG [AK-MS2ROC-r4-exclusion4-8.1] (Eterna round: R97, puzzle: Exclusion 4)",63.9,–,969,–,–,–

Sequence,apparent KD of MS2 coat protein (input ligand: FMN 200 uM) [nM],apparent KD of MS2 coat protein [1] [nM],apparent KD of MS2 coat protein (input ligand: none) [nM],apparent KD of MS2 coat protein [2] [nM],apparent KD of MS2 coat protein [3] [nM],apparent KD of MS2 coat protein [4] [nM]
"AGCCACAGAGGAUAUACAUACAUCCAGUAGUAGAGAAUACUACAUGAGGAUCACCCAUGUAGAAGGCUGUGGCA [Omei Ex2 BD B14] (Eterna round: R97, puzzle: Exclusion 2)",316,–,438,–,–,–
"AGCCCUGCAGGAUAUGCCCGGGAUAACAUGAGGAUCACCCAUGUGACCGAUUGUUAUCCUGCAGAAGGGCUAGGGA [JL-EX5-4.11 ViennaUCT mod] (Eterna round: R97, puzzle: Exclusion 5)",126,–,49,–,–,–
"AGCCGGUCGUGAGGAUAUUACAUGAGGAUCACCCAUGUCGACGGGCUACGGGCGGUCGGCUCGUGUGAGAAGGCGCGCCCGGAA [Tibibiza] (Eterna round: R96, puzzle: Exclusion NG 2)",17.3,8.33,17.6,–,–,–
"AGCCUGCAAGUAAGGAUAUGAAGUUAAAAGAACGGUCAGAAGGUACUUGAGGAUCACCCAAGUACGGGAGCGUG [Teuscema] (Eterna round: R97, puzzle: Brourd's mod of Exclusion 4)",41,–,16.3,–,–,–
"AGCGAAGAGACAGGAUAUGAGAAUAGAUAGAACUCAGAAGGGUCACAUGAGGAUCACCCAUGUAAAGUCUUGAGGCUGCGUGGU [Prohibition 9 - Jieux - Exclusion NG 1] (Eterna round: R96, puzzle: Exclusion NG 1)",141,50.7,71.9,–,–,–
"AGCGAAUAGACAGGAUAUGAGAAUAGAUAGAGCUCAGAAGGGUCACAUGAGGAUCACCCAUGUGAAGUCUUGAGGCUGCGUGGU [Prohibition 18 - Jieux - Exclusion NG 1] (Eterna round: R96, puzzle: Exclusion NG 1)",13.1,13.4,16.1,–,–,–
"AGCGCAUGAGGAUAUACAUGAGGAUCACCCAUGUUCCAGUGAGCACUAGUGAGAGUCAGUAGAAGGUAUAGGGC [Cecete] (Eterna round: R97, puzzle: Exclusion 3)",151,–,172,–,–,–
"AGCGUCUGAGGAUAUGCAUCUUAUCAGUCCGUGCGUAAGCGACAUGAGGAUCACCCAUGUAGAAGGUAGAUGCG [Eternabot (L1) Solution 10] (Eterna round: R97, puzzle: Exclusion 2)",19.6,–,17.6,–,–,–
"AGCGUGUUAGGAUAUACACGACACUGGGUAGCGGGUGGAGGGUAGAAGGGACAUGAGGAUCACCCAUGUUCGGG [Ortere] (Eterna round: R97, puzzle: Exclusion 4)",28.5,–,35,–,–,–
"AGCUAGUCAGGAUAUACGUAAAUGUCGAAAGACGUAUUGGGACAUGAGGAUCACCCAUGUAGAAGGGACUAGCA [Mod of Janderson's WEB Mod v.1] (Eterna round: R96, puzzle: Exclusion 2)",168,19.7,24.8,–,–,–
"AGCUGUGGCCGAGGAUAUCACGAACCAUGGAAAACCAUGGAAAUUCUACAUGAGGAUCACCCAUGUGAGAAGGCGGUCUCAGCA [Eli eng2 - 023] (Eterna round: R96, puzzle: Exclusion NG 2)",–,12.5,–,–,–,–
"AGCUGUGGCCGAGGAUAUCCACAUGAGGAUCACCCAUGUCGAUACGCCGUUAAAGGCGAUAUAAGGGAGAAGGCGGUCUCAGCA [Eli eng2 - 052] (Eterna round: R96, puzzle: Exclusion NG 2)",7.35,6.69,10.2,–,–,–
"AGCUGUGGCCGAGGAUAUCUAACAAUCCCAACCGAAAUAUAAUCGGACAUGAGGAUCACCCAUGUAGAGAAGGCGGUCUCAGCA [Eli eng2 - 073] (Eterna round: R96, puzzle: Exclusion NG 2)",–,137,–,–,–,–
"AGCUGUGGCCGAGGAUAUCUGAAAACUCAAACCGAAAUAUAAUCGGACAUGAGGAUCACCCAUGUAGAGAAGGCGGUCUCAGCA [Eli eng2 - 062] (Eterna round: R96, puzzle: Exclusion NG 2)",–,45.7,–,–,–,–
"AGCUGUGGCCGAGGAUAUUCAGCCUUAAAUACCGACGUAUAGUCGGACAUGAGGAUCACCCAUGUGGAGAAGGCGGUCUCAGCA [Eli eng2 - 046] (Eterna round: R96, puzzle: Exclusion NG 2)",76.4,34.5,48.4,–,–,–
"AGGAUACGAGGAUAUACGCGGAGACCUCAGGGUCUACAAACACAUGAGGAUCACCCAUGUAGAAGGCGUACCAG [Eternabot (Original) Solution 11] (Eterna round: R97, puzzle: Exclusion 2)",394,–,42,–,–,–
